From US20180230231A1 (Memorial Sloan Kettering, published 2018)
Residue numbers refer to the chain shown, from its start. Ends that are not written are not given here.

Key:
[1] = molecular target: mouse MUC16 on ID8 and BR5-FVB1 cells (mouse); test: FACS on BR5-FVB1 (mouse) cells, second antibody alone
[2] = molecular target: mouse MUC16 on ID8 and BR5-FVB1 cells (mouse); test: FACS on ID8 (mouse) cells, second antibody alone
[3] = molecular target: phrGFP-ΔMUC16^c334 on SKOV3 cells (human); test: FACS dot plot, surface staining, goat anti-mouse PE (FL2) against GFP (FL1); secondary antibody alone gives 4.11 in this quadrant (FIG. 7A)
[4] = molecular target: phrGFP-ΔMUC16^c114 on SKOV3 cells (human); test: FACS dot plot, surface staining, goat anti-mouse PE (FL2) against GFP (FL1); secondary antibody alone gives 0.55 in this quadrant (FIG. 7A)
[5] = molecular target: human MUC16 on OVCAR3 cells (human); test: FACS dot plot, surface staining, goat anti-mouse PE (FL2) against GFP (FL1); secondary antibody alone gives 8.06 in this quadrant (FIG. 7A)
[6] = molecular target: phrGFP-ΔMUC16^c334 on SKOV3 cells (human); test: FACS dot plot, surface staining, goat anti-mouse PE (FL2) against GFP (FL1); secondary antibody alone gives 0.69 in this quadrant (FIG. 7A)
[7] = molecular target: phrGFP-ΔMUC16^c114 on SKOV3 cells (human); test: FACS dot plot, surface staining, goat anti-mouse PE (FL2) against GFP (FL1); secondary antibody alone gives about 0.9 in this quadrant (FIG. 7A)
[8] = molecular target: phrGFP-ΔMUC16^c334 on SKOV3 cells (human); test: FACS dot plot, surface staining, goat anti-mouse PE (FL2) against GFP (FL1); secondary antibody alone gives 0.69 in this quadrant
[9] = molecular target: phrGFP-ΔMUC16^c334 on SKOV3 cells (human); test: FACS dot plot, surface staining, goat anti-mouse PE (FL2) against GFP (FL1); secondary antibody alone gives 4.11 in this quadrant
[10] = molecular target: human MUC16 on OVCAR3 cells (human); test: FACS dot plot, surface staining, goat anti-mouse PE (FL2) against GFP (FL1); secondary antibody alone gives 8.06 in this quadrant
[11] = molecular target: phrGFP-ΔMUC16^c114 on SKOV3 cells (human); test: FACS dot plot, surface staining, goat anti-mouse PE (FL2) against GFP (FL1); secondary antibody alone gives about 0.9 in this quadrant
[12] = molecular target: phrGFP-ΔMUC16^c114 on SKOV3 cells (human); test: FACS dot plot, surface staining, goat anti-mouse PE (FL2) against GFP (FL1); secondary antibody alone gives 0.55 in this quadrant
[13] = molecular target: phrGFP-ΔMUC16^c334 on SKOV3 cells (human); test: FACS dot plot, surface staining, goat anti-mouse IgG PE (FL2) against GFP (FL1); secondary antibody alone gives 0.69 in this quadrant (FIG. 7A)
[14] = molecular target: human MUC16 on OVCAR3 cells (human); test: FACS dot plot, surface staining, goat anti-mouse IgG PE (FL2) against GFP (FL1); secondary antibody alone gives 8.06 in this quadrant (FIG. 7A)
[15] = molecular target: phrGFP-ΔMUC16^c334 on SKOV3 cells (human); test: FACS dot plot, surface staining, goat anti-mouse IgG PE (FL2) against GFP (FL1); secondary antibody alone gives 4.11 in this quadrant (FIG. 7A)
[16] = molecular target: phrGFP-ΔMUC16^c114 on SKOV3 cells (human); test: FACS dot plot, surface staining, goat anti-mouse IgG PE (FL2) against GFP (FL1); secondary antibody alone gives about 0.9 in this quadrant (FIG. 7A)
[17] = molecular target: phrGFP-ΔMUC16^c114 on SKOV3 cells (human); test: FACS dot plot, surface staining, goat anti-mouse IgG PE (FL2) against GFP (FL1); secondary antibody alone gives 0.55 in this quadrant (FIG. 7A)
Mouse MUC16-CD Peptide 1 = molecular target: T1, Mouse MUC16-CD Peptide 1 (mouse, also: N-terminal Cys added for KLH conjugation of immunogen); test: ELISA of clone supernatant on individual mouse MUC16 peptides
T1 construct: A cysteine was added at the N terminus for KLH conjugation of the immunogen
T1 peptide: TLDRKSVFVDGYSQNRDD

MUC16 Polypeptide 2 = molecular target: T2, MUC16 Polypeptide 2 (human, not fully specified); test: ELISA on synthetic peptide, hybridoma sup 1:1
T2 construct: Synthetic peptide
T2 peptide: CTLDRSSVLVDGYSPNRNE

Sequence of phrGFP-ΔMUC16^c114 on SKOV3 cells (human) (chain, as listed by the source mutant limits assumed): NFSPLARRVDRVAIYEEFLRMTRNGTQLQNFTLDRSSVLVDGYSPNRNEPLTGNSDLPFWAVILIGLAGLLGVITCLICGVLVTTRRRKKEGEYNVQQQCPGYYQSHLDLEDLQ
Sequence of mouse MUC16 on ID8 and BR5-FVB1 cells (mouse) (chain, as listed by the source limits assumed): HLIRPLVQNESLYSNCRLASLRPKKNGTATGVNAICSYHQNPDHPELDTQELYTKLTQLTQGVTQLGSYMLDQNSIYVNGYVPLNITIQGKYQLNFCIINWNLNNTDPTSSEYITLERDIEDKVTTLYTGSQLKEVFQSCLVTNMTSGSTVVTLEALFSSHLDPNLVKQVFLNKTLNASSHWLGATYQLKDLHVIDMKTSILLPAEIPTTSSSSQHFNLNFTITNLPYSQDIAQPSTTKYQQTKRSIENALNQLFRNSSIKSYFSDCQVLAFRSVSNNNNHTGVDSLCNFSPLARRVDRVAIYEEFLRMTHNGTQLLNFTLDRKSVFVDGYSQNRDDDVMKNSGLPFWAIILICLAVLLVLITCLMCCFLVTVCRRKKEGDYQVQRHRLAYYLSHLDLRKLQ

G anti Mouse IgG2b-PE (antibody)
% of cells in the PE-positive gate [1]: 0.99%
% of cells in the PE-positive gate [2]: 4.53%

M11 (antibody)
% of events in the upper right quadrant (PE-positive, GFP-positive) [3]: 33.5%
% of events in the upper left quadrant (PE-positive, GFP-negative) [4]: 2.55%
% of events in the upper left quadrant (PE-positive, GFP-negative) [5]: 95.3%
% of events in the upper left quadrant (PE-positive, GFP-negative) [6]: 1.35%
% of events in the upper right quadrant (PE-positive, GFP-positive) [7]: 1.24%

OC125 (antibody)
% of events in the upper left quadrant (PE-positive, GFP-negative) [8]: 1.1%
% of events in the upper right quadrant (PE-positive, GFP-positive) [9]: 25.4%
% of events in the upper left quadrant (PE-positive, GFP-negative) [10]: 97%
% of events in the upper right quadrant (PE-positive, GFP-positive) [11]: 1.09%
% of events in the upper left quadrant (PE-positive, GFP-negative) [12]: 2.39%

VK8 (antibody)
% of events in the upper left quadrant (PE-positive, GFP-negative) [13]: 0.91%
% of events in the upper left quadrant (PE-positive, GFP-negative) [14]: 94.9%
% of events in the upper right quadrant (PE-positive, GFP-positive) [15]: 6.59%
% of events in the upper right quadrant (PE-positive, GFP-positive) [16]: 1.02%
% of events in the upper left quadrant (PE-positive, GFP-negative) [17]: 0.69%

B1: 12B10-3G10 (antibody, V domains shown)
VH: EVKLEESGGGLVQPKGSLKLSCAASGFTFNTYAVHWVRQAPGKGMEWVARIRSKSGNYATYYADSVKDRFTISRNDSQSMLYLQMNNLKTEDTAIYYCVRAGNNGAFPYWGQGTTVTVSS
VL: DIELTQSPSSLSASLGGRVTITCKASQDIKKYIAWYQHKPGKTPRLLIHFTSTLQTGIPSRFSGRGSGRDYSFSISNLESEDIATYYCLQYDSLYTFGGGTKLEIKR
notes: Mouse mAb against mouse MUC16, IgG 2b; also called mouse 12B10 mAb; 12B10-3F7
binding result (Mouse MUC16-CD Peptide 1): binds

B2: 4H11.2.5 (antibody, V domains shown)
VH: VKLQESGGGFVKPGGSLKVSCAASGFTFSSYAMSWVRLSPEMRLEWVATISSAGGYIFYSDSVQGRFTISRDNAKNTLHLQMGSLRSGDTAMYYCARQGFGNYGDYYAMDYWGQGTTVTVSS
VL: DIELTQSPSSLAVSAGEKVTMSCKSSQSLLNSRTRKNQLAWYQQKPGQSPELLIYWASTRQSGVPDRFTGSGSGTDFTLTISSVQAEDLAVYYCQQSYNLLTFGPGTKLEVKR
notes: Mouse monoclonal, IgG2b (parent supernatant IgG2b, IgM); also called 4H11 MAb
binding result (MUC16 Polypeptide 2): binds

B3: 4A5.37 (antibody, IgG1, V domains shown)
VH: B2 VH with Q4E, V19I, S29R, S30N
VL: B2 VL with P46T, V111I
notes: Mouse monoclonal, IgG1
binding result (MUC16 Polypeptide 2): binds
